# Laboratory results published in publication PMC6424611.
# Legend:
# Conditions in all cases: reference: unphosphorylated peptide; sites S732
# [1] = biological target: ARHGEF12 PDZ domain (UniProt Q9NZN5); assay: SPR, biotin-peptide on streptavidin chip
# [2] = biological target: GOPC PDZ domain (UniProt Q9HD26); assay: SPR, biotin-peptide on streptavidin chip
# [3] = biological target: MAST1 PDZ domain (UniProt Q9Y2H9); assay: SPR, biotin-peptide on streptavidin chip
# [4] = biological target: MAST2 PDZ domain (UniProt Q6P0Q8); assay: SPR, biotin-peptide on streptavidin chip
# Chain of MAST2 PDZ domain (Q6P0Q8 whole entry, looked up, the tested form may be a part): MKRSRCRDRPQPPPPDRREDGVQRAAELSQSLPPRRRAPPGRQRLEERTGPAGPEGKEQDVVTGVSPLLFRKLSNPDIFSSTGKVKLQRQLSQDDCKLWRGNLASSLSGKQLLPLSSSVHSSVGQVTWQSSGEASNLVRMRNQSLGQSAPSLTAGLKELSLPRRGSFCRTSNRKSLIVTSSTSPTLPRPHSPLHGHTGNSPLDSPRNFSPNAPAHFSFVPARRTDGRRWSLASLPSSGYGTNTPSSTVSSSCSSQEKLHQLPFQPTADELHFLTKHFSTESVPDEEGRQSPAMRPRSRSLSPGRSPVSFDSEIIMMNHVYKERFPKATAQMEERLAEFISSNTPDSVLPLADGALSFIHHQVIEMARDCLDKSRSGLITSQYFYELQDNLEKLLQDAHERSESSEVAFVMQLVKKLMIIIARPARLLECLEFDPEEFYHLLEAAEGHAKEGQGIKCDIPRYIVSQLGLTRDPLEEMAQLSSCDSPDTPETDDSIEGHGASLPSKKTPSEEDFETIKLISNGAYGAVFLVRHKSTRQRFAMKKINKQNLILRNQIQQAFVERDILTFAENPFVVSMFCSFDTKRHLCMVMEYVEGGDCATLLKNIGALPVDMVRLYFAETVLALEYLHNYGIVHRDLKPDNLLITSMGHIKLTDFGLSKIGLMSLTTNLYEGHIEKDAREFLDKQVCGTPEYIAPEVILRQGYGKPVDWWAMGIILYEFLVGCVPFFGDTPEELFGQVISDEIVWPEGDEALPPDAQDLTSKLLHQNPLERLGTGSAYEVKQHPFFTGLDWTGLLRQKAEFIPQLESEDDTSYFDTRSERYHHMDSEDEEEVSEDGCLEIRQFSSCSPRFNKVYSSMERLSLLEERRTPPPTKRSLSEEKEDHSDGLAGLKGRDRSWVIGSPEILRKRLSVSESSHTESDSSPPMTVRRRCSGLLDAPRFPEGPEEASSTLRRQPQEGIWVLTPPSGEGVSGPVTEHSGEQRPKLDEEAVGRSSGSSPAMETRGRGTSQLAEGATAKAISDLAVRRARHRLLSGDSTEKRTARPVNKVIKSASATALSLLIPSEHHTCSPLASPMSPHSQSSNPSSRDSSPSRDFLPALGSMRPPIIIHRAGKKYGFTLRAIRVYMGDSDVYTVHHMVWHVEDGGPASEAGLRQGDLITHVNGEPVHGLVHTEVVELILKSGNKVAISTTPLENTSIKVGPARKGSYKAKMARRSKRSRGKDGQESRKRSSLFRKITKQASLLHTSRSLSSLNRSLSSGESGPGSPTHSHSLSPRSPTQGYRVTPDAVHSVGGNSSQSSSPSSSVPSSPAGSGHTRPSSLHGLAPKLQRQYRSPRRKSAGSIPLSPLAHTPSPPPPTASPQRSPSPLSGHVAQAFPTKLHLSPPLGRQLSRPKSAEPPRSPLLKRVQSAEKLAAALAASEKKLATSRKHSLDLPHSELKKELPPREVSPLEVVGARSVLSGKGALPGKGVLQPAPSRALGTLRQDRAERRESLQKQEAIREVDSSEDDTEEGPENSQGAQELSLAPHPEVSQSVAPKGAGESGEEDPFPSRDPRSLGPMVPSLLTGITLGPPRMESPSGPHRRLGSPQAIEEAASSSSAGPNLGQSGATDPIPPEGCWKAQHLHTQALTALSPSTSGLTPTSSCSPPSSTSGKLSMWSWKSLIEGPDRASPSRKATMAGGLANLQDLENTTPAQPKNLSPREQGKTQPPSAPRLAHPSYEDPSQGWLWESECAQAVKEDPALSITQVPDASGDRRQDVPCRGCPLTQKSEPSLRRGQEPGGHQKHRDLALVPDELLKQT
# [5] = biological target: PDZD7 PDZ domain 3 (UniProt Q9H5P4); assay: SPR, biotin-peptide on streptavidin chip
# [6] = biological target: ARHGEF11 PDZ domain (UniProt O15085); assay: automated holdup, biotin-peptide resin
# [7] = biological target: DFNB31 PDZ domain 3 (UniProt Q9P202); assay: automated holdup, biotin-peptide resin
# [8] = biological target: DLG4 PDZ domain 2 (UniProt P78352); assay: automated holdup, biotin-peptide resin
# [9] = biological target: GORASP1 PDZ domain (UniProt Q9BQQ3); assay: automated holdup, biotin-peptide resin
# Chain of GORASP1 PDZ domain (Q9BQQ3 whole entry, looked up, the tested form may be a part): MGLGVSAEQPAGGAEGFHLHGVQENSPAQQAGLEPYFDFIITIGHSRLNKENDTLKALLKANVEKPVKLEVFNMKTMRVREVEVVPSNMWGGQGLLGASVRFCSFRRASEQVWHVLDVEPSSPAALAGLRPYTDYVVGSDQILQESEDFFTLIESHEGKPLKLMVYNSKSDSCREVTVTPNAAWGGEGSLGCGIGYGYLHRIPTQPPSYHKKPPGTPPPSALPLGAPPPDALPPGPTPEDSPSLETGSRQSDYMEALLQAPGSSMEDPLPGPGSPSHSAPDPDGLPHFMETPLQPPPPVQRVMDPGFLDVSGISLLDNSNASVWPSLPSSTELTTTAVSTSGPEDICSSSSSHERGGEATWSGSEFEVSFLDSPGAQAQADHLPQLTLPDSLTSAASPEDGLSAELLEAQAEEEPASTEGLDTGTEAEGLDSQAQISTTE
# [10] = biological target: GORASP2 PDZ domain (UniProt Q9H8Y8); assay: automated holdup, biotin-peptide resin
# [11] = biological target: GRASP PDZ domain (UniProt Q7Z6J2); assay: automated holdup, biotin-peptide resin
# [12] = biological target: GRID2IP PDZ domain 1 (UniProt A4D2P6); assay: automated holdup, biotin-peptide resin
# [13] = biological target: HTRA1 PDZ domain (UniProt Q92743); assay: automated holdup, biotin-peptide resin
# [14] = biological target: LAP2 PDZ domain (UniProt Q96RT1); assay: automated holdup, biotin-peptide resin
# [15] = biological target: LIMK2 PDZ domain (UniProt P53671); assay: automated holdup, biotin-peptide resin
# [16] = biological target: LNX1 PDZ domain 3 (UniProt Q8TBB1); assay: automated holdup, biotin-peptide resin
# [17] = biological target: MAGI1 PDZ domain 2 (UniProt Q96QZ7); assay: automated holdup, biotin-peptide resin
# [18] = biological target: MAGI2 PDZ domain 2 (UniProt Q86UL8); assay: automated holdup, biotin-peptide resin
# [19] = biological target: MAGI3 PDZ domain 2 (UniProt Q5TCQ9); assay: automated holdup, biotin-peptide resin
# [20] = biological target: NHERF2 PDZ domain 2 (UniProt Q15599); assay: automated holdup, biotin-peptide resin
# [21] = biological target: NHERF3 PDZ domain 1 (UniProt Q5T2W1); assay: automated holdup, biotin-peptide resin
# [22] = biological target: PDZRN3 PDZ domain 1 (UniProt Q9UPQ7); assay: automated holdup, biotin-peptide resin
# [23] = biological target: PPP1R9A PDZ domain (UniProt Q9ULJ8); assay: automated holdup, biotin-peptide resin
# Chain of PPP1R9A PDZ domain (Q9ULJ8 whole entry, looked up, the tested form may be a part): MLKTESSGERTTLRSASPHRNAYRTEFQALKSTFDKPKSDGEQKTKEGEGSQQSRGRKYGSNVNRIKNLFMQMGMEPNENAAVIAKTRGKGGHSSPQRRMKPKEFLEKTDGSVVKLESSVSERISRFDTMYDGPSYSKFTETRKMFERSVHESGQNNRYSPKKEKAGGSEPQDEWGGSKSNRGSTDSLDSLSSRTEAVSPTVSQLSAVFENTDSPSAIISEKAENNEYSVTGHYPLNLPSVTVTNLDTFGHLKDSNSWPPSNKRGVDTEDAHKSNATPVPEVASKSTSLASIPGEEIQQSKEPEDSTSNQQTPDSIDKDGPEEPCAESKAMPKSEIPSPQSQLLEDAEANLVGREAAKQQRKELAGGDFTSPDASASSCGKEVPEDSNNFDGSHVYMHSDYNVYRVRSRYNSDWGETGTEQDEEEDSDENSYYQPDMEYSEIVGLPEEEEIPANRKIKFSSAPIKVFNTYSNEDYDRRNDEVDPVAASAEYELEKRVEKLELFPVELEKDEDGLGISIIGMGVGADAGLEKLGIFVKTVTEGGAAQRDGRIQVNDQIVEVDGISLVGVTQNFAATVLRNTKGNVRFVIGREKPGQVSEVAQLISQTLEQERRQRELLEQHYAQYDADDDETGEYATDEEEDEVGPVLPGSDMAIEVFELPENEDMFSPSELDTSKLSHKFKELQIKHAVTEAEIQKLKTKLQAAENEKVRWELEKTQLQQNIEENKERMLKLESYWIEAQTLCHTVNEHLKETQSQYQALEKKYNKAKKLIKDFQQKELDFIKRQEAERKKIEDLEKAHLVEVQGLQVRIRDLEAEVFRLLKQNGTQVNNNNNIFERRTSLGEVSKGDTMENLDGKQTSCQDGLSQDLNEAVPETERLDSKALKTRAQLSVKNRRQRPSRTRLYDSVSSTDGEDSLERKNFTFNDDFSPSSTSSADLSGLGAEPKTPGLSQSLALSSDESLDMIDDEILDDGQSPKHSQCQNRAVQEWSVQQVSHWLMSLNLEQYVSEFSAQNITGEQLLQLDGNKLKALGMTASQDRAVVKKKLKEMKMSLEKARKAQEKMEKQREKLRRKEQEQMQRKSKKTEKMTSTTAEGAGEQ
# [24] = biological target: PTPN3 PDZ domain (UniProt P26045); assay: automated holdup, biotin-peptide resin
# [25] = biological target: SHANK3 PDZ domain (UniProt Q9BYB0); assay: automated holdup, biotin-peptide resin
# [26] = biological target: SHROOM2 PDZ domain (UniProt Q13796); assay: automated holdup, biotin-peptide resin
# Chain of ARHGEF12 PDZ domain (Q9NZN5 whole entry, looked up, the tested form may be a part): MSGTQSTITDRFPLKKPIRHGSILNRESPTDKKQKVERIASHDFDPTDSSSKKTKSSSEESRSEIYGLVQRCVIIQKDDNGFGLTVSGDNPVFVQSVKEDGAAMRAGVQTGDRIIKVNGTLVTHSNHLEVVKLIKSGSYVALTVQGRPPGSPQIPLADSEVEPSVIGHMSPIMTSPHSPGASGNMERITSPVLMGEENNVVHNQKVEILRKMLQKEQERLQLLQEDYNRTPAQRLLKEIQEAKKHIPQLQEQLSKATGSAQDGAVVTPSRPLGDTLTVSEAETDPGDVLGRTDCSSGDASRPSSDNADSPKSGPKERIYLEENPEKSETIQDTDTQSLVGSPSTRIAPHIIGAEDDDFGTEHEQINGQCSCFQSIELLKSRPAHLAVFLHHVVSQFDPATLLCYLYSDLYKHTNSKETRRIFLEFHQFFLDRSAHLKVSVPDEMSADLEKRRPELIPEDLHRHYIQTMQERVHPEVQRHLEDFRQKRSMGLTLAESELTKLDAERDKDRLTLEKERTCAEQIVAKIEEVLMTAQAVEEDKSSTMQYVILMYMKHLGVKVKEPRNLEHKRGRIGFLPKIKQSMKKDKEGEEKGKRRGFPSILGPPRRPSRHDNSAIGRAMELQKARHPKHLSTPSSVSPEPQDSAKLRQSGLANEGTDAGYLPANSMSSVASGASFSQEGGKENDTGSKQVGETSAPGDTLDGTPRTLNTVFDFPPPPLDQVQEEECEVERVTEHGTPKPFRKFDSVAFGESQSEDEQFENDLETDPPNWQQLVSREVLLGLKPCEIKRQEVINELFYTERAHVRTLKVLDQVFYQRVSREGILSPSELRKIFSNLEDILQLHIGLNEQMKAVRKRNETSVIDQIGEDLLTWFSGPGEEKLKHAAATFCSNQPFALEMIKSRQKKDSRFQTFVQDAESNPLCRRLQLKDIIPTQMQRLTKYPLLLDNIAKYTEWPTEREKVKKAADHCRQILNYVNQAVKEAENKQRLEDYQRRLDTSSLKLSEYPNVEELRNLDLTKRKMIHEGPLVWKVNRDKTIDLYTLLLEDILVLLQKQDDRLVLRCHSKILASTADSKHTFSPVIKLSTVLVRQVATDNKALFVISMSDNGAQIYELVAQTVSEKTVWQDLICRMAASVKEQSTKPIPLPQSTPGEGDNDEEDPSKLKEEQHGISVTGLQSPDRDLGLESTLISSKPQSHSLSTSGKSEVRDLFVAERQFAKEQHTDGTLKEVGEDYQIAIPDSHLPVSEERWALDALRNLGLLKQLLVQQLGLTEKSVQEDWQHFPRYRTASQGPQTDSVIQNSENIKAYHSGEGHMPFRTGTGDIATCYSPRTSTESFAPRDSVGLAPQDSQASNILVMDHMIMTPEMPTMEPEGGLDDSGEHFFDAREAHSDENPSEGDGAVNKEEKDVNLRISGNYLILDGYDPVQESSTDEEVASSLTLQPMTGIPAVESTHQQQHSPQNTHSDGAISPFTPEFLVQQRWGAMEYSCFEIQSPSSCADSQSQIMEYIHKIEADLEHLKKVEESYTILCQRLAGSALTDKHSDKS
substance,measurement,setting,value
RSK1 (ribosomal S6 kinase 1) 725-735 (from UniProt Q15418) pS732 peptide,KD,[1],lost; reference 2.79 ± 0.11
same,KD,[2],weaker; reference 8.92 ± 0.44
same,KD,[3],weaker; reference 20 ± 1
same,KD,[4],weaker; reference 7.02 ± 0.27
same,KD,[5],weaker; reference 6.2 ± 0.9
same,other: holdup binding intensity (BI),[6],lost; reference 0.28 ± 0.06
same,other: holdup binding intensity (BI),[7],lost; reference 0.23 ± 0.04
same,other: holdup binding intensity (BI),[8],gained; reference 0.11 ± 0.03
same,other: holdup binding intensity (BI),[9],gained; reference 0.01 ± 0.02
same,other: holdup binding intensity (BI),[10],weaker; reference 0.41 ± 0.02
same,other: holdup binding intensity (BI),[11],lost; reference 0.29 ± 0.01
same,other: holdup binding intensity (BI),[12],gained; reference 0.06 ± 0.02
same,other: holdup binding intensity (BI),[13],weaker; reference 0.44 ± 0.03
same,other: holdup binding intensity (BI),[14],gained; reference −0.02 ± 0.05
same,other: holdup binding intensity (BI),[15],gained; reference 0.01 ± 0.06
same,other: holdup binding intensity (BI),[16],gained; reference 0.04 ± 0.02
same,other: holdup binding intensity (BI),[17],weaker; reference 0.43 ± 0.02
same,other: holdup binding intensity (BI),[18],weaker; reference 0.42 ± 0.01
same,other: holdup binding intensity (BI),[19],same; reference 0.28 ± 0.03
same,other: holdup binding intensity (BI),[20],lost; reference 0.20 ± 0.04
same,other: holdup binding intensity (BI),[21],lost; reference 0.41 ± 0.01
same,other: holdup binding intensity (BI),[22],stronger; reference 0.26 ± 0.01
same,other: holdup binding intensity (BI),[23],gained; reference 0.00 ± 0.02
same,other: holdup binding intensity (BI),[24],gained; reference 0.05 ± 0.02
same,other: holdup binding intensity (BI),[25],lost; reference 0.27 ± 0.03
same,other: holdup binding intensity (BI),[26],gained; reference 0.00 ± 0.01
